Source: article PMC5674894
Where two headings read alike, the source gives them in different places.

Experiments:
Test in all cases: FRET or BRET
[1] = target: RNC_(RodZ): ribosome-nascent chain complex displaying the N-terminal 180 amino acids of RodZ (UniProt P27434)
[2] = target: RNC_(RodZ): ribosome-nascent chain complex displaying the N-terminal 180 amino acids of RodZ (UniProt P27434); remark: listed apart in the source
[3] = target: RNC_(RodZ160): ribosome-nascent chain complex with a RodZ nascent chain of 160 amino acids (UniProt P27434)
[4] = target: RNC_(RodZ) bearing the mutant TMD with two arginines introduced (UniProt P27434)
[5] = target: RNC_(RodZ): ribosome-nascent chain complex displaying the N-terminal 180 amino acids of RodZ (UniProt P27434); remark: listed apart in the source

Kd [1]: 55 nM | Kd [2]: 1 nM | reduction in Cm donor fluorescence (FRET) [2]: 44% | Kd [3]: 0.94 nM | Kd [4]: 25.9 nM | Kd [5]: 19 nM
Substance: SecA(C98S/S12C) labeled at residue 12 with BODIPY-FL (from UniProt P10408 1-901) (enzyme)
